The data set is described as follows: soluble on expression in E. coli; label from the status in PepcDB or PDB records.
With “MRKTKIVCTIGPASESEEMIEKLINAGMNVARLNFSHGSHEEHKGRIDTIRKVAKRLDKIVAILLDTKGPEIRTHNMKDGIIELERGNEVIVSMNEVEGTPEKFSVTYENLINDVQVGSYILLDDGLIELQVKDIDHAKKEVKCDILNSGELKNKKGVNLPGVRVSLPGITEKDAEDIRFGIKENVDFIAASFVRRPSDVLEIREILEEQKANISVFPKIENQEGIDNIAEILEVSDGLMVARGDMGVEIPPEKVPMVQKDLIRQCNKLGKPVITATQMLDSMQRNPRATRAEASDVANAIYDGTDAVMLSGETAAGLYPEEAVKTMRNIAVSAEAAQDYKKLLSDRTKLVETSLVNAIGISVAHTALNLNVKAIVAATESGSTARTISKYRPHSDIIAVTPSEETARQCSIVWGVQPVVKKGRKSTDALLNNAVATAVETGRVSNGDLIIITAGVPTGETGTTNMMKIHLVGDEIANGQGIGRGSVVGTTLVAETVKDLEGKDLSDKVIVTNSIDETFVPYVEKALGLITEENGITSPSAIVGLEKGIPTVVGVEKAVKNISNNMLVTIDAAQGKIFEGYANVL”, the “soluble on expression in E. coli” value is on record as “not soluble”. In the case of “MNRIGFIGAGNMGTAMIRGLAQANLVKREEIIVGGRNLEKLKPLEAEFTGLQITTDTEKLVEQADIIILAVKPYTIPEILTSVKEKLTPDKIIISVAAGVTIQDLEELTSAKTKIVRVMPNTPALVGEAMSSVSPNTNVTSEELKEVTAIFTSFGEAEVVSENLMDAVIGVSGSSPAYVYMFIEALADGAVLSGMPRDKAYKFAAQAVLGAAKTVLETGEHPGKLKDMVTSPGGTTIEAVKSLENDGFRSAVINAVQAAAKKNSSMLEHHHHHH” it was “soluble”; in that of “VTLRVVPESLAGASAAIEAVTARLAAAHAAAAPFIAAVIPPGSDSVSVCNAVEFSVHGSQHVAMAAQGVEELGRSGVGVAESGASYAARDALAAASYLSGGL”, “not soluble”; in that of “MNYHWSDHPDPNKWADCVHCGMCLEACPTYELTGHEQQSPRGRVHLIKSVAEGKLEVNEAFADPVFTCLDCRACETACPADVEVGGLIEEARGQIRQALPLSGWKLEHHHHHH”, “not soluble”.

Consider “MPHILNVTVPIPETHVLITKDEYDELIGYSLDPVWNMSDLKKKLKIASDETIKDRLLFHPRFEKELRAQGIVHYPDENFNRWRFNARKMNKFVDEHFNEIYKERIKLEHHHHHH”, for which the “soluble on expression in E. coli” value is “not soluble”. To “MVRLPPPTPPRKPNICGTSGNSNGINENIDTSTFSVSAAKALFESAKRPEVRNAAIAAAKNPFVRQTAKNVAQDEKARGAVLNAVKDPSGGNKISAAFAVADANRKSDSVPPPPPHRGGTSPGKLSGSHSAIRSQLENMHIGGSVMSSNSSTATPSYQSNSTSSYSSSAPVAPPPVPRHTQSIPSYSAPAISTPYGIAKFDYAPTQSDEMGLRIGDTVLISKKVDAEWFYGENQNQRTFGIVPSSYLDIKIPLKEAFTALPPRPAAPSGSSSGTYATAIYDYNSNEAGDLNFAVGSQIMVTARVNEEWLEGECFGRSGIFPSQFVDCPNLYQVPMKQSAPSSAPSYSHPITNNSGPKQTVTVSYDYDSGVASDLRLFEGDVITALEDIDAQWLLAECRGQQGMVPKTFLGPPYGSPKKAPSKGIAEIACAFSPKKAVATGDYHSEDPKHLYVTRGDHLLIVEDVDDYYYKGKLEAFKTLPAGILPKNIVKLEN” belongs “not soluble”. To “MSVKHHDVIIIGAGAAGLMCAATAGYRGRDVLVLDNAKQAGRKILISGGGRCNFTNLKVEPANFICGNPHFVKSALARYPSQQFIELVERHGIEYHERDHGQLFCNDSAKEIVTMLLTECEWAGVSIKLRTDILSVGKNEAGRFELNTSNGELSCDSLVIATGGLSMPKLGATPYGYQLAEQFGLKVLPTHAGLVPFTWHSEDKIRFEPLSGIAVPSRITAKDGTAFSEALLFTHRGLSGPAILQISNYWKAGETIKINLLPNMDAAQAIEQQLAAHPKQSLRNTLSLWLPKRLVEVLFDEVLLNKALNQLVHAERAKLVDDLHRWTVLMNGTEGYRTAEVTLGGVDTHELSSKTMEAIKVPGLFFIGEVMDVSGWLGGFNFQWAWASGVAAGKAV” belongs “not soluble”. To “MQIDVNVEVKEKPTGAVMFGAGYSNMEGLILSGSVAQDNIFGTGKFVNLMVNTGSVNKTYSLSYTDPYFTKDGVTAGLDLYKRVLNTRTLSSVMNFNTDTLGAGLRFGIPINENDSIMGGLGAEQTTIDLGPDSPQRNIDFVNKFGRTTINIPATLSWRRDGRDSAIWTTSGTTQRVFAEVGLPGGDLTYYKLSYDLRWYFPITEIFTLMLNGELGYGDGYSGKELPFFKNFFAGGNTSVRGYNISSLGPRDATNRTLGGNKRAVGNIEVLFPMPGMRNDRTVRLSAFLDGGTVWGPGGVRPDQEGLRYSAGIAVTWISPMGPLKISVAQPLNSQPGDNIQRFQFQFGQQFLEHHHHHH” belongs “not soluble”; to “MQNEGQYAEADALLLSLVAAKDAHLMGERTVLGLPRRLHAARLRLAKAEGDLVARIGYQYTLVPPPDMLAKYTQFSAEDRRMINRKSREDVPRLIHQIWIGEKAPPISVKAWAAHAARHGYDYRLWREADLEREGVFSNAIFNRMLSEGDYPGAVDVARYILLERFGGIYLDCDWYPARDDRSFDAFVPLAGLTAFDEKTPRDTGQGSMLLANSFIAAPAGHPVFRKMLDSFPGIIEEMPRAPAWWSTGPLIFTVIARAGSISLAPASFVAVTLADRAPLEEVEAIRRELATQDSGMLIAWKSWLEHHHHHH”, “soluble”; to “MGSDKIHHHHHHMDILLANPRGFCAGVNRAIQIVDRALELFGAPIYVRHEVVHNRHVVEDLRARGAIFVEELDEVPDAATVIFSAHGVPIAVREHAAARGLSVFDATCPLVTKVHMEVKKYSRDGMEMVLIGHAGHPEVEGTMGQVEEGMMYLVSNVSDVATLAPRNPDKLAYITQTTLSMDDTAEVIVALRSRFPLIEGPKKDDICYATQNRQDAVKSLAPDVDILLVVGAPNSSNSSRLAELGTRLGTQTHLIEDAQQLRREWFEGVGKIGISAGASAPESLVQEIMDTLRGWGARVPQEMPGVEEKVTFSLPLALIQAQTRREGA”, “not soluble”. For “MAHHHHHHMSTSTTHVQKETILSLNYYEIFSLDPSARDVDFGSVHRAYRRFALLFHPDKDPSPAARAAFERVKLAAETLTDPQMRREYDEELLQKLQRSTGTGATSAWQRQQRDVMEEEALAADMILRQKEAATAAKAAAKREEELEKEAAAKQMLHELTNALTTPFKRMEEELVHEWEIDEDLLSMKEKEVESLLQKLREYNEGQGRHGRSVDAHTCGTKRRRSEEETASKV”, the “soluble on expression in E. coli” value was “soluble”.

Turning to “MNYAEICIIKRDGKREDFSISKIKNAIGKAFHASGIDNEDKLIAEITMRVISNFVSPTISVEEIQDLVEKELMKVRPEVAKKYIIYREWRNTERDRKTQMKHIMDGIVAIDKNDVNLSNANMSSHTPAGQMMTFASEVTKDYTYKYLLPKKYAEAHQLGDIHIHDLDYYPTKTTTCIQYDLDDLFERGFRTKNGSIRTPQSIQSYATLATIIFQTNQNEQHGGQAIPAFDFFMAEGVRKTFRKHLKTLTEFYIEVEGKEPGTEALKKIEEKAYAMTRKDTHQAMEGFIHNLNTMHSRGGNQVVFSSINYGTDTSPEGRMVIEELLKATIEGLGTRGEVPVFPIQIFKVKDGVSYSEEDYKKAMENFEAALEGKMEFQAPNFDLFLKACRTTAKALFPNFMFLDTPYNKNEKWDIKDPKRYRYELATMGCRTRVYENIAGEKSSLGRGNLSFTTMNMPRLAIEARIKAESLEESGKKEAIERKAKEIFIESVHALSELIAEQLYARYQYQRTALARQFPFMMGNDVWKGGGKLSPNDQVGDVLRQGTLGIGFIGGHNAMMALYGEGHAHSQKAWDTLFEAVTEMNKVADEYKQKYQLNFSVLATPAEGLSGRFTRMDRRKYGIIPGVTDNDYYVNSFHVDVKEPITITEKIKREAPFHAITRGGHITYVELDGEAQKNVKAIAKIVKVMHDEGIGYGSINHPVDTCQACGYKGVIYDKCPVCQSENIMRMRRITGYLTGDLSTWNSAKRAEERDRVKHG”, the “soluble on expression in E. coli” value was “not soluble”. In the case of “MGSDKIHHHHHHMSEAFLRFDGISVEFPGVKALDEVSFSARAGEVHALMGENGAGKSTLLKVLSGVNRPSSGQLWIDGQAHVFANAREALAHGIAIIYQELTLSPNLSVAENLLLGQLPERRGFIDRRTMKARAREILEELGEGDIDPATKVRELSIGQQQMIEIGRALLRDARIIAFDEPTSSLSVQETRQLKRIVARLRDEGRVVLYVTHRMEEVFEMCDAVTVFRDGRHIRTHETLEGLDHDMLVGEMVGRQIDDVYGFRPRDIGDVLMRIDGLQGRGVNEPVNLEVRRGEVLGLFGLVGAGRSELMRLVCGVEKASRGQVALRGETRVFASPHQAIRAGIAMCPEDRKSQGIFPVASVSDNLNISCRRFFRRWGMFRHAARETDNAKTYIQRLSIKTPSHRTPINTLSGGNQQKVILGRWLAEEIDLFVMDEPTRGIDVGARRDIYALLYDLAEQGKGVIVISSDLAEVSSICDRIGVMRDGVLVDIVPREQATQARLLGLALPA” it was “not soluble”; in that of “MTVLLSKRAINILLMLLDLEGSITTQELAESFTVSVRTIKYDLEDIRAWFEQHDETLYSKRNKGIWLDLPDSKRLLLKNEIIDVDRFETYPDQKRRVNVLIFQLLSVKGYLTAQQLADELLVSRNTIVSDLEQVERLLQAYDLTLIRQARQGFTISGEESNVRLLMEFITQKELTEYDIYQIMNYVTKTKGAEKIPKIKFGSGTLFQGCYRSALKKMRNLINPLDQNQFDYAEILSITLRVAIAAARMQMAHTIGTYRVLSQKTRFEQRNEVPLLLLQEVFERYDLPLLADEYFYIYSDLFGTHQRQDMVQLTKQVIESVSKELNYPFVNDRQLFTNLFAHLSLRFTKKHLFINEYNPFSEEIKGKHPALFLAIQSACKQLIQRSVLLVNDSFCAYIALHFLAAQERQQQEAKVVRIVYVCSTGLGVTSLIEQKILEEVPNVELAGFASVLNATEVIQAEKPDLVLSIFPIEEMTYPFIKVSPLLTDTDLSLIREEVDKILLGKRQGKGTARSTKSDVIEKNERIQSQDLLVKAYIIYEELKRMFQTKLLSEYQEAFLLHVLLMTHRITFNKQYEEIPCNREVSHERQEEIRQIECLFAKNELPVNHAEISALLNYLEQPKEEEDGTSNGSTGDHSTKC”, “not soluble”. To “MGSDKIHHHHHHMRVNSTDLQNAFGKYLSLLEKEDIIITKNGRSVAKLLRYNEPDYFLVHEESKNYKTTKRISYEEYMDLVDSSDQRYELIDGENYLLATPSFKHQVVVNEISGHFYNYFRGKSCRSLTSPFDVRLFGFATKFEEDPNVVQPDVVVICDLDKINEANKYEGIPSLIVEVLSPSTKGKDMVMKLNLYMKSGVLEYWVVDMESKSILQYSFSPERDIDSLKSLGEEDTIESSAFAGLKILLGEIFAEI” belongs “not soluble”; to “MSETKNDIAWERIFKKYRILEKIKKNGAFEITSGQINEFREARLMTKFDHRKNLPKIFEENNFSILPITRGSYLIAQFKAYHRLEEKETEIIKIPFPTYIESIDYENITSEAAALNCAYVSGILADFIEDEEMVPTVTGRMSSDAFCFYINTYSGSKFKVNVTNAQIEIDGGYEGLGTFSLIEAKNSLSDDFIIRQIYYPYRLWHDKINKKVKPIFMTYSNGIFTFYEYEFQDPEDYNSLTLVKQKKYSIEETEIGLDDIIEIYKRTKIINEPEVPFPQADSFERIINLCELLNESELTRDEITTNYDFDSRQTNYYTDAARYLGLVHKRKEGREVIFSLTEEGEKLFKLKYKPRQLKFVELILSHKVFREVFELCLKNGKMPDKHEVVKIMRYSNLYKIESEKTFYRRAQTIMSWIKWILELTRL”, “not soluble”; to “MGSDKIHHHHHHMKGIEVKQVTKSFDKKMILNGIGMTIEPNKIYGLLGRNGAGKSTLLSLLVNRIAPDTGEIRLDNKVIRDNDEQLSKMFLMSEVDLYPKNLKVKDVFKWTKSFYGGFDEELAQDLCEKFGLQTNIIFNKLSTGYRTIMKLIVALAVPVEYVFLDEPILGLDAGHREIFYNALVETYAENPRTFVISTHLIEEIANLIEHVLVIDHGRLIVDDETEKVLGEAYVVSGPEDKVDEYTQGLNVIGSDKLARIKASYVFGSLDNKPISDLINIDQMDLQTLFVNLTNGGNENE”, “not soluble”.

The values above are taken from the DeepSol protein solubility set.
